Consider 1 substance from article PMC5514047.

The assay has as its target human ribosomal stalk protein P2 lacking the last 16 amino acids (P2ΔC) (human) (UniProt P05387). The experiment in a line: native MS.

By stoichiometry N is commonly meant the number of molecules, sites or subunits per partner or assembly. The substance “human ribosomal stalk protein P2 lacking the last 16 amino acids (P2ΔC) (from UniProt P05387 1-99) (domain or fragment)” displayed a stoichiometry N of 2.
